The values that follow come from publication PMC11268888.

Holding throughout (assay): SPR; […]; HBS-EP (10 mM HEPES pH 7.4, 150 mM NaCl, 3 mM EDTA, 0.005% Surfactant P20); […]
A general note: In SPR one partner is held on a chip, and binding of the other changes the refractive index at the surface.

The target in test [1] is soluble head domain of CDV-H (canine distemper virus hemagglutinin), Kyoto Biken vaccine strain, made in HEK293T cells (canine distemper virus (Kyoto Biken vaccine strain)).
Test [2] has as its target ectodomain (head domain) of CDV-H, 5VD wild-type strain (canine distemper virus (5VD wild-type strain)).
The target of test [3] is MeV-H (measles virus hemagglutinin), vaccine strain (measles virus).

ectodomain of human Nectin-4 (residues 1-333), sequence (Q96NY8 32-333): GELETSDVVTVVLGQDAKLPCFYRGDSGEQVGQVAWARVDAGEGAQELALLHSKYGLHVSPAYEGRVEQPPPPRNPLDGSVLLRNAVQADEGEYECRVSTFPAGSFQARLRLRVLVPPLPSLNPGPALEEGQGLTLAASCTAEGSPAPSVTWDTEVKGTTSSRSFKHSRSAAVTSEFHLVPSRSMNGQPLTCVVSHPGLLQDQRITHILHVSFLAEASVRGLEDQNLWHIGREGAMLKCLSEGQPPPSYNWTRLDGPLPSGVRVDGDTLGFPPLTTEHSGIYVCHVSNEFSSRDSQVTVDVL

For “ectodomain of dog Nectin-4 (residues 1-332) (receptor)”, the figures for the Ka in test [1], in test [2] and in test [3] were 1.06e+06 M⁻¹, 396000 M⁻¹ and 950000 M⁻¹, respectively. For the same substance, the figures for the Kd in test [1], in test [2] and in test [3] were 942 nM, 2530 nM and 1050 nM, respectively.

For “ectodomain of human Nectin-4 (residues 1-333) (from UniProt Q96NY8 32-333) (receptor)”, the Ka in test [1] turned out to be 1.05e+06 M⁻¹; in test [2], 397000 M⁻¹; in test [3] it was 1.5e+06 M⁻¹. In addition, the Kd (usually a measure of binding affinity in units of concentration) is 2520 nM in test [1], 948 nM in test [2] and 666 nM in test [3].
